Measured values from article PMC3219669.

Legend:
[1] = molecular target: Gβ1 and YFP-Gγ2 expressed from the Gβ1-2A-YFP-Gγ2 unit; assay: FRET or BRET; FLIM of the mTurquoise donor (phase and modulation lifetimes) in living HeLa cells, room temperature; all three subunits from the single plasmid Gβ-2A-Gγ-IRES-Gα
[2] = molecular target: Gβ1 and YFP-Gγ2 expressed from the Gβ1-2A-YFP-Gγ2 unit; assay: FRET or BRET; FLIM of the mTurquoise donor (phase and modulation lifetimes) in living HeLa cells, room temperature; all three subunits from the single plasmid Gα-IRES-Gβ-2A-Gγ

FRET efficiency from the modulation lifetime (E τM) [1]: 19%
FRET efficiency from the phase lifetime (E τϕ) [1]: 27%
FRET efficiency from the modulation lifetime (E τM) [2]: 7%
FRET efficiency from the phase lifetime (E τϕ) [2]: 14%
Substance: Gαq-mTurquoiseΔ6 (from UniProt P50148 1-359) (natural protein)
